Experimental data as given in patent publication US20240226274A1.
pKd: −log10 of the molar value. Where “and” joins values, the source holds several entries; their conditions need not be identical. Equal entries are not always repeated.

Experiments:
[1] = biological target: RSV F DS-Cav1 (respiratory syncytial virus); assay: BLI; antibody on Protein A sensor, F protein in solution; RT, not heated
[2] = biological target: RSV F design R-1b (respiratory syncytial virus (A2 strain)); assay: as above
[3] = biological target: RSV F DS-Cav1 (respiratory syncytial virus); assay: BLI; antibody on Protein A sensor; F protein heated 1 h at 55 C
[4] = biological target: RSV F design R-1b (respiratory syncytial virus (A2 strain)); assay: as above
[5] = biological target: RSV F DS-Cav1 (respiratory syncytial virus); assay: BLI; antibody on Protein A sensor; F protein heated 1 h at 60 C
[6] = biological target: hMPV F design M-104 (human metapneumovirus) (UniProt Q6WB98); assay: BLI; antibody on Protein A sensor, F protein in solution; RT, not heated
[7] = biological target: hMPV F 115-BV (human metapneumovirus) (UniProt Q6WB98); assay: as above
[8] = biological target: hMPV F design M-104 (human metapneumovirus) (UniProt Q6WB98); assay: BLI; antibody on Protein A sensor; F protein heated 1 h at 55 C
[9] = biological target: postfusion RSV A2 F (respiratory syncytial virus A2) (UniProt P03420); assay: BLI; antibody on Protein A sensor, F protein in solution; RT, not heated
[10] = biological target: postfusion RSV A2 F (respiratory syncytial virus A2) (UniProt P03420); assay: BLI; antibody on Protein A sensor; F protein heated 1 h at 60 C

Substance | kon [1] | kon [2] | kon [3] | kon [4] | kon [5] | kon [6] | kon [7] | kon [8] | pKd [2] | koff [2] | pKd [4] | koff [4] | pKd [1] | kon [9] | kon [10]
antibody D25 | 121000 M⁻¹ s⁻¹ and 187000 M⁻¹ s⁻¹ and 149000 M⁻¹ s⁻¹ | 179000 M⁻¹ s⁻¹ and 144000 M⁻¹ s⁻¹ and 151000 M⁻¹ s⁻¹ | 213000 M⁻¹ s⁻¹ and 160000 M⁻¹ s⁻¹ and 142000 M⁻¹ s⁻¹ | 156000 M⁻¹ s⁻¹ and 120000 M⁻¹ s⁻¹ and 121000 M⁻¹ s⁻¹ | 115000 M⁻¹ s⁻¹ and 135000 M⁻¹ s⁻¹ and 132000 M⁻¹ s⁻¹ |  |  |  |  |  |  |  |  |  | 
antibody MPE8 |  |  |  |  |  | 40100 M⁻¹ s⁻¹ and 32400 M⁻¹ s⁻¹ and 42100 M⁻¹ s⁻¹ | 14500 M⁻¹ s⁻¹ and 15200 M⁻¹ s⁻¹ and 10900 M⁻¹ s⁻¹ | 36600 M⁻¹ s⁻¹ and 21700 M⁻¹ s⁻¹ and 25100 M⁻¹ s⁻¹ |  |  |  |  |  |  | 
antibody AM14 | 161000 M⁻¹ s⁻¹ and 204000 M⁻¹ s⁻¹ and 181000 M⁻¹ s⁻¹ | 203000 M⁻¹ s⁻¹ and 227000 M⁻¹ s⁻¹ and 219000 M⁻¹ s⁻¹ | 50300 M⁻¹ s⁻¹ and 58500 M⁻¹ s⁻¹ and 50100 M⁻¹ s⁻¹ | 88700 M⁻¹ s⁻¹ and 86300 M⁻¹ s⁻¹ and 99100 M⁻¹ s⁻¹ |  |  |  |  | 9.30 and 9.31 and 9.25 | 0.000111 s⁻¹ and 0.000124 s⁻¹ and 0.000101 s⁻¹ | 9.87 and 9.88 | 1.15e-05 s⁻¹ and 1.31e-05 s⁻¹ |  |  | 
antibody 131-2A | 8290 M⁻¹ s⁻¹ and 9190 M⁻¹ s⁻¹ and 17600 M⁻¹ s⁻¹ | 47900 M⁻¹ s⁻¹ and 47500 M⁻¹ s⁻¹ and 33700 M⁻¹ s⁻¹ |  |  |  |  |  |  | 8.19 and 8.13 and 7.92 | 0.00031 s⁻¹ and 0.000353 s⁻¹ and 0.0004 s⁻¹ |  |  | 6.88 and 7.46 and 7.76 | 400000 M⁻¹ s⁻¹ and 409000 M⁻¹ s⁻¹ and 485000 M⁻¹ s⁻¹ | 522000 M⁻¹ s⁻¹ and 482000 M⁻¹ s⁻¹ and 452000 M⁻¹ s⁻¹
